Data: article PMC10066184

Target: GltTk_P208R (UniProt Q5JID0)
Assay: cryo-EM structure; single-particle cryo-EM of GltTk_P208R in MSP2N2 nanodiscs (E. coli lipids), 20 mM Tris-HCl pH 8.0, 100 mM KCl, with 300 mM NaCl and 100 uM L-Asp added; C3 symmetry imposed

With “GltTk_P208R (from UniProt Q5JID0 1-430) (natural protein)” as the substance, how does the stoichiometry N read?
The stoichiometry N was 3.
